The source of these data is PMC5170866 (Molecular Biology of the Cell, 2016).

In this test the target is Recombinant His-tagged CYFIP2-N (aa 1–624) (mouse, UniProt Q5SQX6 1-624). The test can be described thus: pull-down.
Sequence of Recombinant His-tagged CYFIP2-N (aa 1–624) (Q5SQX6 1-624): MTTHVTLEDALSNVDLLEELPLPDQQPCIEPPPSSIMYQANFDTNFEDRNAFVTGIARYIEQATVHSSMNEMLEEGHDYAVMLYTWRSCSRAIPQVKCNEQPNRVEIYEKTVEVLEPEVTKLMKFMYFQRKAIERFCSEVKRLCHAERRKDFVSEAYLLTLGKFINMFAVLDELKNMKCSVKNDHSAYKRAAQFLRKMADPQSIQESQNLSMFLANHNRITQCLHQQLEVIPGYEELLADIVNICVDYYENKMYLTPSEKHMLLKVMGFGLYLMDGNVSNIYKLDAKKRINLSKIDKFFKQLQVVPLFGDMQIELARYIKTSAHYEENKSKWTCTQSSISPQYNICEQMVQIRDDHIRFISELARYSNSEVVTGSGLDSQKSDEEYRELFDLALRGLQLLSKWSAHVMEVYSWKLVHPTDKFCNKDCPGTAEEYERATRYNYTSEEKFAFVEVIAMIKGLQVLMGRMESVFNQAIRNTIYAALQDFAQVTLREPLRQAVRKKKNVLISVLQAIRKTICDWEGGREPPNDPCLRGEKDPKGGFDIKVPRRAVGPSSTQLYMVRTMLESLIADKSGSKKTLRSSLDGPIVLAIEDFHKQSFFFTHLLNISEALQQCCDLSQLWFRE

B1: C-terminus of retrolinkin (RTLN-C, aa 489–574) fused to GST (domain or fragment, mouse, UniProt Q8BHE4 489-574, looked up)
chain: CCMRRKKKTANPENNLSYWNNAITMDYFNRHAVELPREIQSLETSEDQLSEPRSPANGDYRDTGMVLVNPFCQETLFVGNDQVSEI
Turning to B1, the binding result is “binds”.
